Values belong to the molecule of their own block, whether it stands above or below them. Bridge positions count the residues as written; N and C are the ends. Ends that are not written are not given here. Peptide text beside a SMILES is read from it. * marks the point of attachment. 5FAM = O=C1OC2(c3ccc(O)cc3Oc3cc(O)ccc32)c2ccc(C(=O)*)cc21; Vert = not defined here; Ahx = NCCCCCC(=O)O
Assays:
[1] = test system: IL4-stimulated macrophages; assay: In vitro photodynamic therapy, MTT cell viability, IL4-stimulated macrophages; format: cell-based, human; conditions: with and without irradiation, 30µM
[2] = test system: (LPS + IFNy)-stimulated macrophages; assay: In vitro photodynamic therapy, MTT cell viability, (LPS + IFNγ)-stimulated macrophages; format: cell-based, human; conditions: with and without irradiation, 30µM
[3] = target: T1, human recombinant CD206 (Homo sapiens, UniProt P22897); assay: Quartz Crystal Microbalance (QCM) binding to PAH/CD206 multilayer; conditions: peptides 10µM in PBS, curve fitting, read-out: constant of association
T1 construct: purchased R&D systems 2534-MR-050/CF
T1 sequence (P22897 19-1456): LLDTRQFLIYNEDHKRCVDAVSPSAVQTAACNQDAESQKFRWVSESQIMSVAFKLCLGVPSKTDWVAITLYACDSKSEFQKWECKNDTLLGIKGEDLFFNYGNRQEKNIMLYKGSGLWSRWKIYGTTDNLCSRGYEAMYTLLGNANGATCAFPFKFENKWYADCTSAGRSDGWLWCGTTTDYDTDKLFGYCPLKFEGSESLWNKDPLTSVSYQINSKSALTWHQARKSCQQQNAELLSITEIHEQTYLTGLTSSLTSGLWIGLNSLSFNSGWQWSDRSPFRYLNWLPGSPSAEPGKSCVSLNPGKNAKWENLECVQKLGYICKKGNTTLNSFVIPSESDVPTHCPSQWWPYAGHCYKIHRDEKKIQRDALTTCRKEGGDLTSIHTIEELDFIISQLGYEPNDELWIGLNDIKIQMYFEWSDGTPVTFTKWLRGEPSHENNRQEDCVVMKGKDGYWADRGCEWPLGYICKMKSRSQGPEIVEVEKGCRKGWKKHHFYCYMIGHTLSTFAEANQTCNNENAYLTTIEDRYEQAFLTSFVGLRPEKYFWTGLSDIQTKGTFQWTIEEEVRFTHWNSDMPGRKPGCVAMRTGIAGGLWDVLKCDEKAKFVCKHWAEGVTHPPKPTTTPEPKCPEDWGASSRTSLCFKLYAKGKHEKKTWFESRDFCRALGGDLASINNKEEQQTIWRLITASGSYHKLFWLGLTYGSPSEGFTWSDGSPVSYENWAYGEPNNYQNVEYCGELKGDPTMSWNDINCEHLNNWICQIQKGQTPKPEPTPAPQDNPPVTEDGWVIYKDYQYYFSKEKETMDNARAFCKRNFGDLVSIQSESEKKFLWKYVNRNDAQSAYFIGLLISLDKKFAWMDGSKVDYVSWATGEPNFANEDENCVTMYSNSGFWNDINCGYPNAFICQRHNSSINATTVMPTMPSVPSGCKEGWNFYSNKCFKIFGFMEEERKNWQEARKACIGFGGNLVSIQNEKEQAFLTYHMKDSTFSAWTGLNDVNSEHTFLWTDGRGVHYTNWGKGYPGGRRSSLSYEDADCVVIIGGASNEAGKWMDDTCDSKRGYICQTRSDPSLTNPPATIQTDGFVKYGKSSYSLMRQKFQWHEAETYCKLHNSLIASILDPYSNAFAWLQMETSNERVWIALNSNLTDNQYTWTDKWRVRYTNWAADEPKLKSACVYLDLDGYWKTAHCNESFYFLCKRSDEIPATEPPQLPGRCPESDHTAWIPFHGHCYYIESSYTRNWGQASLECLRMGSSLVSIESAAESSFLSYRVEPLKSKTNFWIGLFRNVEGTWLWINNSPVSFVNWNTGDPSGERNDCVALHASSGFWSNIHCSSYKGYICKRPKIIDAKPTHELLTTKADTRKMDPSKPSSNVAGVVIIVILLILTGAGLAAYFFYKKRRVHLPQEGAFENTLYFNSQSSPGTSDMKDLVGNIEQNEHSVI
Text: To confirm the capacity of MACTIDE to bind to CD206, we evaluated binding to recombinant CD206 included in a viscoelastic film, using Quartz Crystal Microbalance (QCM). QCM is a powerful technique used to study label-free ligand-receptor interactions in solution (Baltus, R. E. et al., Langmuir 2007, 23 (7), 3880-3885), wherein peptide binding and dissociation is sensed through a mass increase or decrease on a resonating crystal surface functionalized with the receptor. Here, we evaluated the mass changes of MACTIDE when binding and dissociating in solution to CD206 immobilized on a viscoelastic film, deposited on a gold-modified quartz crystal resonating at 5 MHz. […]
The Quartz Crystal Microbalance (QCM) used was QCM200 system from Stanford Research Systems (Sunnyvale, CA, USA). […] Then, a baseline with 500µL of mQ at pH 8 was recorded, the measurement was paused and then 5µL of a 1mg/mL solution in PBS were added (human recombinant CD206, Cat # 2534-MR-050/CF from R&D systems, reconstituted with 50µL of mQ); final concentration of CD206 in the cell: 0.01 mg/mL. […] For peptides, 500µL of PBS were placed in the cell and the baseline was recorded, the measurement was then paused and 50µL of a 100µM solution of peptides in PBS were gently deposited on the cell and the measurement was resumed. […]

[4] = mouse, in vivo
[5] = target: T2, Bovine Serum Albumin (BSA, Cat # A7906, Sigma-Aldrich) (bovine, UniProt P02769 25-607); assay: QCM, peptide in PBS on PAH/BSA control multilayer
T2 construct: Control protein deposited on PAH as the control multilayer; also called PAH/BSA control multilayer
T2 sequence (P02769 25-607 limits assumed): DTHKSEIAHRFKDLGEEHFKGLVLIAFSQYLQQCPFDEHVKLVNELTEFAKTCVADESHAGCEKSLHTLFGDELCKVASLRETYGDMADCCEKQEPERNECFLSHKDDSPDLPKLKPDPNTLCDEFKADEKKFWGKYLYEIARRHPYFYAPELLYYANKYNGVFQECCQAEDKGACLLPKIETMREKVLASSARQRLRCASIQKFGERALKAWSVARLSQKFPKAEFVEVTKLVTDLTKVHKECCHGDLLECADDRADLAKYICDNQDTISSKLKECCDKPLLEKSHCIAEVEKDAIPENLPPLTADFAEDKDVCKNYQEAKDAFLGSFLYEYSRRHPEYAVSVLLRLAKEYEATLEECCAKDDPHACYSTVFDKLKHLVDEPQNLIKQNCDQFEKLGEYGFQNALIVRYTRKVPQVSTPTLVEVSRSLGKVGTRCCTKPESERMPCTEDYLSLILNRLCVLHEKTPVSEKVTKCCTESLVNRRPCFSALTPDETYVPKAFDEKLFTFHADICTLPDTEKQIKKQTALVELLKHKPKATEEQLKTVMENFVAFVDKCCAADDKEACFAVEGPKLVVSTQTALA

[6] = target: T3, human recombinant CD206 (Cat # 2534-MR-050/CF from R&D systems) (human, UniProt P22897 19-1383, limits assumed); assay: QCM, PAH/CD206 multilayer, curves fitted with TraceDrawer
T3 construct: Bought recombinant protein; also called Macrophage Mannose Receptor 1; PAH/CD206 multilayer
T3 sequence: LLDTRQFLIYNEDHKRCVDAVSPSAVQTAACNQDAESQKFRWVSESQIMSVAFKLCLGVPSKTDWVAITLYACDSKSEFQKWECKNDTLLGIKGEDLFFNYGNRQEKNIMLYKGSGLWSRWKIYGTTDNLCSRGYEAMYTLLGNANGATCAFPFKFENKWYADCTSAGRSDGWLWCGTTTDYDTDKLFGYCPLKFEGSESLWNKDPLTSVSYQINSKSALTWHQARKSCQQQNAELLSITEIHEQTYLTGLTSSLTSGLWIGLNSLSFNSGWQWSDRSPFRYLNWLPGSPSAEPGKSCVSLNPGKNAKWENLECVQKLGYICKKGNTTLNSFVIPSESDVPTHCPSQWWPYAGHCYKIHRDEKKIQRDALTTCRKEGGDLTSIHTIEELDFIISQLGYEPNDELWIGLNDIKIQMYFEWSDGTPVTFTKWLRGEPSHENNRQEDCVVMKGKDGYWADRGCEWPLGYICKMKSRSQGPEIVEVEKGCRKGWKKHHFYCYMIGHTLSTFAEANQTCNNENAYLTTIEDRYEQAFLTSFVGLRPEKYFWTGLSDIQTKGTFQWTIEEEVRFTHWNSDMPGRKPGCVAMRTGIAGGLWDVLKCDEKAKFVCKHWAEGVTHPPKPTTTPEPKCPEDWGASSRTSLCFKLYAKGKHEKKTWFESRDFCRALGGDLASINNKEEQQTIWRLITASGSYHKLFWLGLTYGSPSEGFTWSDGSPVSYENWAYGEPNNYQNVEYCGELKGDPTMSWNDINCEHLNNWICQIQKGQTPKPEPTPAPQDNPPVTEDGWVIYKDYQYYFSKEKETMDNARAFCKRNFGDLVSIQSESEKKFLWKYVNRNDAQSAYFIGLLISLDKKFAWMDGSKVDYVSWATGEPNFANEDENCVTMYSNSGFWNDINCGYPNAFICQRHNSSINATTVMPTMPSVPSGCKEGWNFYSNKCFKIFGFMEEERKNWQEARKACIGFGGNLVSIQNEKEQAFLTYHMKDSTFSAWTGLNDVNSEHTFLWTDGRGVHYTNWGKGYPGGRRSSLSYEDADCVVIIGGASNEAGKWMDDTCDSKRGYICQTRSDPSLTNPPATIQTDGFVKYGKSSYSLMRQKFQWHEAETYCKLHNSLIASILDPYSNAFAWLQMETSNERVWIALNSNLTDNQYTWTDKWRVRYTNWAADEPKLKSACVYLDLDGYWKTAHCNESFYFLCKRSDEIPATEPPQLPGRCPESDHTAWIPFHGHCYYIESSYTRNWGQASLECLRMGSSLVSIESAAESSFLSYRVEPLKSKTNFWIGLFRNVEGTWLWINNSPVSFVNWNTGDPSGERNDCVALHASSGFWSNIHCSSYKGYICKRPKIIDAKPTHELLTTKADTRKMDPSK

[7] = target: T3, human recombinant CD206 (Cat # …); assay: QCM (summary of example 3, Fig. 3)

Molecule: Vert-CtrlPep: control conjugate, Vert-Ahx- on AKPCGS (SEQ ID NO: 8) ({Vert-Ahx}-AKPCGS; reading uncertain)
toxicity [1]: no toxicity
toxicity [2]: no toxicity

kon at 10 µM [3]: 650 M⁻¹ s⁻¹
Molecule: CC[C@H](C)[C@@H]1NC(=O)[C@@H]2CCCN2C(=O)[C@@H]2CCCN2C(=O)[C@H]([C@@H](C)CC)NC(=O)[C@H](CO)NC(=O)[C@H](CCCCN)NC(=O)[C@H]([C@@H](C)O)NC(=O)[C@@H](NC(=O)CN)CSSC[C@@H](C(=O)N[C@@H](CO)C(=O)N2CCC[C@H]2C(=O)NCC(=O)N[C@@H](C)C(=O)N[C@@H](CCCCN)C(=O)O)NC1=O [MACTIDE, GCTKSIPPICSPGAK] (H-GCTKSIPPICSPGAK-OH; disulfide 2-10)

Molecule: CC[C@H](C)[C@@H]1NC(=O)[C@@H]2CCCN2C(=O)[C@@H]2CCCN2C(=O)[C@H]([C@@H](C)CC)NC(=O)[C@H](CO)NC(=O)[C@H](CCCCN)NC(=O)[C@H]([C@@H](C)O)NC(=O)[C@@H](NC(=O)CNC(=O)CCCCCNC(=O)c2ccc3c(c2)C(=O)OC32c3ccc(O)cc3Oc3cc(O)ccc32)CSSC[C@@H](C(=O)N[C@@H](CO)C(=O)N2CCC[C@H]2C(=O)NCC(=O)N[C@@H](C)C(=O)N[C@@H](CCCCN)C(=O)O)NC1=O [FAM-MACTIDE] ({5FAM-Ahx}-GCTKSIPPICSPGAK-OH; disulfide 2-10)
blood half-life [4]: the same as those obtained previously for FAM-mUNO

kon at 10 µM [3]: 1400 M⁻¹ s⁻¹
Molecule: CSPGAK [mUNO, CSPGAK]

binding result [5]: no binding (tested: 10µM)
Kd [6]: 6 µM
koff [6]: 0.0087 s⁻¹
kon [6]: 1400 M⁻¹ s⁻¹
B1: mUNO (peptide)
peptide: CSPGAK
notes: also called mUNO peptide

fold higher affinity (against mUNO) [7]: 15 fold
binding result [5]: no binding (tested: 10µM)
Kd [6]: 0.38 µM
fold slower dissociation constant against mUNO [6]: 30 fold
koff [6]: 0.00025 s⁻¹
kon [6]: 650 M⁻¹ s⁻¹
B2: MACTIDE (peptide)
peptide: GCTKSIPPICSPGAK
modifications: disulfide 2-10
notes: Monocyclic through the C2-C10 disulfide; also called the peptide of the invention
